Laboratory results from the supplement of paper PMC9170038.

System: MS2 coat protein
Experiment: apparent KD of MS2 coat protein; higher = weaker reporter binding
Conditions: Eterna round: R107
Outline: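 Apparent KD is reported per design as the median of normalised binding-curve fits across its clusters. The RNA switches were made by on-chip transcription from Illumina sequencing clusters. SNAP-549-labelled MS2 coat protein was then added in twofold steps (0.7 or 1.5 nM to 3 µM; 0.8–1.5 h to 10–20 min per step) in 100 mM Tris-HCl pH 7.5, 80 mM KCl, 4 mM MgCl2, without or with constant ligand.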

[1] = input ligand: theophylline 20 uM
[2] = input ligand: tryptophan 2.4 mM
[3] = input ligand: theophylline 2 mM

Sequence	apparent KD of MS2 coat protein (input ligand: arginine 13.2 mM)	apparent KD of MS2 coat protein [1]	apparent KD of MS2 coat protein [2]	apparent KD of MS2 coat protein (input ligand: none)	apparent KD of MS2 coat protein [3]
GAUAGUUGAAGGGAUACCAGCCUGGACAUGAGGAUCACCCAUGUAGCGUGUUUGAAACUGGGCCCUUGGCAGCCCAUAUUGUGUA [Same State - Theophylline B / A]	0.0163 µM	0.0176 µM	0.0152 µM		
ACAUGAGGAUCACCCAUGUAUCAACGGGAAGGAGCGCCAAACAAGGCAGGUAGGUCGCCCACAUGAGGAUCACCCAUGUGUUGGU [Exclusion Arginine A GF 29]	0.0206 µM	0.0258 µM	0.0211 µM	0.0214 µM	0.0249 µM
AAAAUCCUACUUGAGGAUCACCCAGGUGAAGGAGCGCCCGAAAGGGCAGGUAGGUCGCACCUGAGGAUCACCCUGGUAACCUAAA [ArgEX 9 #DoubleMS2 #OpenEnded]	0.14 µM	0.171 µM	0.178 µM	0.164 µM	0.211 µM
ACGAACGCACCUGAGGAACACCCAGGUGAUACCAGCCUGGAAACAGGCCCUUGGCAGCACCUAAAAUAAAGGUAACGUUCGAAUA [TheoAX8 #MicroSwitchBubble #AlternativeMS2]	0.171 µM	0.231 µM	0.0989 µM	0.126 µM	0.18 µM
UGUAUGUGAUCUGAUACCAGUCCAACUGGUAAAAGAUGAGGAUCACCCAUCUAAAAUUGGGACCCUUGGCAGCAGAUCGCAUACU	0.0917 µM	0.122 µM	0.264 µM	0.264 µM	0.0137 µM
CAAGAGUUGUACAUUGUGAGGCGUCGGGAACGAGGACCGGUACGGCCGCCACUCGAAAAUUAACAUGAGGAUCACCCAUGUACAC [theeternabot_exclusion_MS2_Trp_A_35]	0.0361 µM	0.0727 µM			0.0828 µM
AAUGGGCGAGUAGAGCAUAAUUUCCACUCCCGAGGACCGGUACGGCCGCCACUCGUUCGCUCACAUGAGGAUCACCCAUGUGGUC [theeternabot_exclusion_MS2_Trp_A_17]	0.0247 µM	0.0323 µM			0.0403 µM
ACAUACAUGAGGAUCACCCAUGUCCAUGUUCGAGGACCGGUACGGCCGCCACUCGCGCGACAGCAUGAGGAACUUGAGGAUCACA [Exclusion Tryptophan A]	0.0395 µM	0.104 µM	0.0488 µM	0.0638 µM	0.0822 µM
UGAUAUAGGGAGCCGUAUCAGAAACCUGAAGGAGCGCCGGAAAAGGCAGGUAGGUCGCGGGAACAUGAGGAUCACCCAUGUAUUC [dancer_small]	0.0174 µM	0.0212 µM	0.0183 µM	0.019 µM	0.0192 µM
UUCAGCUAGUCGGCCGCCACUAUCUGAGGAUCACCCAGGUAAUCCUAACACUGCUUCGGCAGUGGUAGGACCGGGACUAGCUGAG	0.00818 µM	0.0263 µM	0.0106 µM	0.0145 µM	0.02 µM
GGAUAGGACACGGCCGCCACUAGCUAGGAUACUAGCAACAUUUCCUCACUUGAGGAUCACCCAGGUAGGACCGGGUGUCCUAUCG	0.143 µM	0.577 µM	0.62 µM	0.58 µM	1.43 µM
GUACAUGAGGAUCACCCAUGUAUAGUUGAAGGAGCGACCGGAGGGUCAGGUAGGUCGCAGCACAUGGCGUCAACCCGUGUAUGCC [#1 Exclusion - Arginine A Attempt #25 (Inspired by Pi)]	0.0152 µM	0.0227 µM	0.0186 µM	0.0173 µM	0.0185 µM
GGUGGCUGGAUCGAUACCAGCCACCACCGAUAGACCACAUGAGGAUCACCCAUGUUGGGUGGCCCUUGGCAGCGGUCCGGCUGCC [#1 Same State - Theophylline B Attempt #7 (HarryS)]	0.126 µM	0.679 µM	0.759 µM		
CCGUUUUAUGGCGACAUAGGGCGGACUGAAGGAGCGGUGAAUAAGCCAGGUAGGUCGCAGAGAUCCACAUGAGGAUCACCCAUGU [!0.aD]	0.322 µM	0.0622 µM	0.0775 µM	0.0526 µM	0.0635 µM
AUGCAUAGCACGGCCGCCACUCAAAUUAAACAUGAGGAUCACCCAUGUAACAUGGAUAAAAUAAAGAGGACCGGGUGAAAUGCAA [JR_SSTryptoB_Sub010]	0.026 µM	0.0362 µM			0.0337 µM
AAGGUAUCACAGACAUGGGUGUACUGUGAUACCAGCUAGGAAACUAGCCCUUGGCAGCACAUGAGGAUCACCCAUGUAAGAAUAA [(T)'-(M)'-(T1)-(T2)-(M1)-(M2)_Design4_2/19/17]	0.034 µM	0.0949 µM	0.0538 µM		
AAUGGUCGUACUGGAAUGGUGAUCCUCAAACGAGGACCGGUACGGCCGCCACUCGAUAACAUGAGGAUCACCCAUGUAAUAAUAA [|T'-M'-Trp-Ms2|_Design13b]	0.026 µM	0.0674 µM			0.0552 µM
GGAUAGGACAGAAGGAGCGUGAGAUGCAAAGCAUCAUUCCUCACAUGAGGAUCACCCAUGUCACAGGUAGGUCGCUGUCCUAUCG [ArgBX 4]	0.0783 µM	0.119 µM	0.112 µM	0.0951 µM	0.11 µM
ACGACGCAUAGUGAUACCAGCACAACAUGAGGAUCACCCAUGUCACAUAUGUUGUAAUAAUGCCCUUGGCAGCACUAUGCGUCAG [SSTheo B #2]	0.0346 µM	0.0833 µM	0.0508 µM		

Sequence	apparent KD of MS2 coat protein (input ligand: arginine 13.2 mM)	apparent KD of MS2 coat protein [1]	apparent KD of MS2 coat protein [2]	apparent KD of MS2 coat protein (input ligand: none)	apparent KD of MS2 coat protein [3]
ACCGCAUCCGUAUAGGAUGCGGCCCAUGAAGGAGCGUGGGAAACCACAGGUAGGUCGCAUGACAUGAGGAUCACCCAUGUUUAUU [Matrix]	0.0278 µM	0.0527 µM	0.0339 µM	0.0442 µM	0.0409 µM
GAGGACAUGAGGAUCACCCAUGUAAAUGAUACCAGUUGAGAGAGAGGCCCUUGGCAGCGUAAACAUGACAGCGAGCGAGAGUGCG [ss-theoA-0]	0.0163 µM	0.0192 µM	0.0146 µM	0.0131 µM	0.0153 µM
AGUAGACACGCGGCCGCCACUUGAGGAUCACCCAGGUGGUGUGUACUUGAAAACAAGUGCACAUCAAGGACCGGGCGUGUCUACA [Omei Tryp B SS D v2]	0.0129 µM	0.0171 µM	0.0273 µM		0.0139 µM
UGACAUUGCUCAGAUACCAGACAUGAGGAUCACCCAUGUGCCAAAUACGUACAAAUAAAUGUCCCUUGGCAGCUGAGCAAUGUCU [TheoBX 12 #MS2Left #Theo2]	0.0162 µM	0.0222 µM	0.0144 µM		
GCUGCCAUACGAAGGAGCGCUGUUGCAAUGAGGCGAACAUGAGGAUCACCCAUGUGGCAGCAGCAGGUAGGUCGCGUAUGGCAGC [EAB #12]	0.0334 µM	0.0536 µM	0.0442 µM	0.0425 µM	0.0527 µM
UAUAGUACCAGACAUGAGGAUCACCCAUGUCGAGGACCGGUACGGCCGCCACUCGGCAGUUUGCGUCCUCAGGUACUCCGGGUCA [Larisotexe]	0.0176 µM	0.0283 µM			0.0261 µM
UGUGUCGUCUGAAGGAGCGGCUCUUGAUCCUCGUGAGACAUGAGGAUCACCCAUGUCUCGAGCCAGGUAGGUCGCAGGCGGCACA [#26 Exclusion - Arginine B]	0.00708 µM	0.0128 µM	0.0141 µM	0.0162 µM	0.0136 µM
UGAGAGGGCAGAAGGAGCGACAUGAGGAUCACCCAUGUCUCCCGUUAUGGGAGUUCUUUAGGUCAGGUAGGUCGCUGGCCUCUCA [#1 Exclusion - Arginine B Attempt #9 (Inspired by Omei)]	0.054 µM	0.135 µM	0.0995 µM	0.117 µM	0.146 µM
UAUAUAGAUGGACGUCAUCUAGAUGCAGAAGGAGCGUAGGAAACUACAGGUAGGUCGCUGAGGUACAUGAGGAUCACCCAUGUAG [SSArg A #21 Slice of Pi]	0.0227 µM	0.0288 µM	0.0215 µM	0.0189 µM	0.027 µM
GAUUACAUGAGGAUCACCCAUGUAACUGAAGGAGCGGUAAUAAAGCCAGGUAGGUCGCAGAACAACAUGUGGUUCAUCCAUGUAA [#14 Exclusion - Arginine A]	0.0232 µM	0.035 µM	0.0213 µM	0.0201 µM	0.0268 µM
GGGUGCGGCACGGCCGCCACUGCGGUGGUGUGACAUGAGGAUCACCCAUGUUGUCAUGCGGCCCUUAGGACCGGGUGCCGUGCCC [#1 Exclusion - Tryptophan B Attempt #13 (HarryS)]	0.0395 µM	0.0609 µM	0.0438 µM	0.0337 µM	0.0624 µM
CCUAUCCAGUCGGCCGCCACUGAAAACAGUGGGUGAACAUGAGGAUCACCCAUGUAGGAUUUCCACAGGACCGGGACUGUAUAGG [Ex Tryptophan B 24]	0.0794 µM	1.3 µM	0.223 µM	0.933 µM	1.23 µM
GGGUGUGAUCCGGAUACCAGCGAACAUGAGGAUCACCCAUGUGACCUGAGAUCGGCUCUACGCCCUUGGCAGCCGCGGUCGCAGG [Same State Theophylline B GF13]	0.023 µM	0.0195 µM	0.0124 µM		0.0154 µM
GCGACACUCACGGCCGCCACUGAUUAGCCCAGUAUGGAGCCCACACAUGAGGAUCACCCAUGUCACAGGACCGGGUGGGUCUAUU [theeternabot_sameState_MS2_Trp_B_23]	0.0228 µM	0.0421 µM			0.0255 µM
UGUAUGUGAUUUGAUACCAGACCAGCUGGUGGUACUUGAGGAACACCCAAGUAGGUUUGGGUCCCUUGGCAGCAAAUCGCAUACU [SS Theo B #24 Ms11]	0.111 µM	0.16 µM	0.138 µM		0.0299 µM
AGAUUCGACACGGCCGCCACUCGAGACGGAUUUCCGAGUGUCGAACAUGAGGAUCACCCAUGUCCGAGGACCGGGUGUUGAGUCU [XTryp B #10]	0.0243 µM	0.0428 µM			0.0511 µM
ACAUGAGGAUCACCCAUGUUCCUCGCCGAUACCAGUGAAGAAGAACGCCCUUGGCAGCGGAAAGAGUAUUUUGGAGAUGAGGUAC [6.X]	0.0725 µM	0.134 µM	0.124 µM		
GGGAGAUGAAUAGAAUGAGAUGACACAGAAGGAGCGUGAAUUAACACAGGUAGGUCGCUGACAACAUGAGGAUCACCCAUGUAUU [Same State Arginine A GF3]	0.0181 µM	0.0213 µM	0.0189 µM	0.0152 µM	0.0195 µM
AAUAACAUGAGGAUCACCCAUGUAAAAGAUACCAGAGUGAUGAUCCUCCCUUGGCAGCUUAAAACGCUAUUGAUUACAAUAGCGA [Mat - Same State Theophlline A - Mod of Eli - D4]	0.0383 µM	0.099 µM	0.0453 µM		
